Data reported in US20230002496A1 (STAIDSON BEIJING BIOPHARMACEUTICALS, published 2023).
Read-outs that look alike come from different tables or passages of the source. Each block holds one molecule with its values, some of them ahead of it.

Columns and labels:
[1] = target: T1, human GM-CSFRα, full length on cells (human, UniProt P15509 23-400); assay: cell-based or functional assay
T1 sequence: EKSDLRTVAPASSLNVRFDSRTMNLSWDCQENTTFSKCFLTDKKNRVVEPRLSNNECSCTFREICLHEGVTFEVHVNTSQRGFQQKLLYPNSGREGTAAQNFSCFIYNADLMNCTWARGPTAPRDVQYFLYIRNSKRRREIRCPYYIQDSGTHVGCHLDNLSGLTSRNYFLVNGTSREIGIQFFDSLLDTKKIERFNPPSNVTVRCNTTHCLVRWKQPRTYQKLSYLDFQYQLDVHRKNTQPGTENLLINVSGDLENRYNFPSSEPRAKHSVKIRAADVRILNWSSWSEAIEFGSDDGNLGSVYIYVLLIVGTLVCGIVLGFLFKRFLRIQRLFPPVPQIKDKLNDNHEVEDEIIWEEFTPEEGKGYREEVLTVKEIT

[2] = target: T2, human GM-CSFRα-6His (human, UniProt P15509 23-320); assay: ELISA on human GM-CSFRα, antibodies as human IgG1; x axis 'Log Ab concentration', no unit
T2 construct: pTT5-GMRa-6his (ECD), made in 293F cells; also called GMRah; GMRa-6his(ECD)
T2 sequence: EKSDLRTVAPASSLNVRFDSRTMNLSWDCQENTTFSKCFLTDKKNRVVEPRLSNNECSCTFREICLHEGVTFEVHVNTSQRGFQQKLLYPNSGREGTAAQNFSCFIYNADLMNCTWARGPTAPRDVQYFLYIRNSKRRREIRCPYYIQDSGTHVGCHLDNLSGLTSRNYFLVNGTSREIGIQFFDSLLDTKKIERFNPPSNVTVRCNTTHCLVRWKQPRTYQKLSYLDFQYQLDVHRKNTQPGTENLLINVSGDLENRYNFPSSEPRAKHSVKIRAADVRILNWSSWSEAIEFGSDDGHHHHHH

[3] = target: T2, human GM-CSFRα-6His; assay: competitive ELISA, title on the sheet 'Blocking GMRah binding to GM-CSF'; antibody (human IgG4) titrated; blocked ligand GM-CSF; x axis 'Log Ab concentration', no unit
[4] = target: T1, human GM-CSFRα, full length on cells; assay: cell-based or functional assay; remark: listed apart in the source
[5] = target: T1, human GM-CSFRα, full length on cells; assay: cell-based or functional assay; remark: listed apart in the source
[6] = target: T2, human GM-CSFRα-6His; assay: SPR, Biacore T200, antibody (IgG4) on CM5 chip, GMRah as analyte
Procedure: The affinities for GMRah at various concentrations were measured. […] The concentrations of 0.625 and 0 nM were repeated once. Using the SPR technology, the association and dissociation rates were measured, and binding affinity was determined.

[7] = target: T1, human GM-CSFRα, full length on cells; assay: cell-based or functional assay; remark: listed apart in the source
[8] = target: T1, human GM-CSFRα, full length on cells; assay: cell-based or functional assay; remark: listed apart in the source
[9] = target: T1, human GM-CSFRα, full length on cells; assay: cell-based or functional assay; remark: listed apart in the source
[10] = target: T1, human GM-CSFRα, full length on cells; assay: cell-based or functional assay; remark: listed apart in the source

IC50, CD11b expression on human peripheral blood cells [1]: 0.181 µg/mL
IC50, IL-1β secretion by PBMC [1]: 0.0126 µg/mL
IC50, TNFα secretion by PBMC (ELISA) [1]: 1.74 µg/mL
IC50, TNFα secretion by PBMC (Human Macrophage/Microglia Panel) [1]: 3.09 µg/mL
Molecule: Mab-IgG4 (Mavrilimumab) (antibody)

binding result [2]: binds
B1: E85-IgG1 (antibody, V domains shown)
VH: QMQLVQSGAEVKKPGASVKVSCKVSGYTLTELSIHWVRQAPGKGLEWMGGFDPEDGETIYAQKSQGRVTMTGDTSTDTAYLELSSLRSEDTALYYCATGRYSSYFTNYGFDYWGQGTLVTVSS
VL: EIVMTQSPATLSLSPGERATLSCRASQSVSSYLAWYQQKPGQAPRLLIYGASSRATGIPDRFSGSGSGTDFTLTISRLEPEDFAVYYCQQYNNWPYTFGQGTKLEIK
notes: human IgG1, human kappa

binding result [3]: binds
B2: E90-IgG4 (antibody, V domains shown)
VH: QMQLVQSGAEVKKPGASVKVSCKVSGYTLTELSIHWVRQAPGKGLEWMGGFDPEDGETIYAQKSQGRVTMTGDTSTDTAYLELSSLRSEDTALYYCATGRYTGLYASYGFDYWGQGTLVTVSS
VL: EIVMTQSPATLSLSPGERATLSCRASQSVSSYLAWYQQKPGQAPRLLIYGASSRATGIPDRFSGSGSGTDFTLTISRLEPEDFAVYYCQQYDNWPYTFGQGTKLEIK
notes: human IgG4, human kappa

binding result [2]: binds
B3: E200a-IgG1 (antibody, V domains shown)
VH: QMQLVQSGAEVKKPGASVKVSCKVSGYTLTELPMHWVRQAPGKGLEWMGGFDPEDGETIYAQKFQGRVTMTGDTSTDTAYLELSSLRSEDTALYYCATGRYTIITTNYGFDYWGQGTLVTVSS
VL: EIVMTQSPATLSLSPGERATLSCRASQSVSSYLAWYQQKPGQAPRLLIYGASSRATGIPDRFSGSGSGTDFTLTISRLEPEDFAVYYCQQYDNWPPTFGQGTKLEIK
notes: human IgG1, human kappa

binding result [2]: binds
B4: E87-IgG1 (antibody, V domains shown)
VH: QMQLVQSGAEVKKPGASVKVSCKVSGYTLTELSIHWVRQAPGKGLEWMGGFDPEDGETIYAQKSQGRVTMTGDTSTDTAYLELSSLRSEDTALYYCATGRYVSLFFNYGFDYWGQGTLVTVSS
VL: EIVMTQSPATLSLSPGERATLSCRASQSVSSYLAWYQQKPGQAPRLLIYGASSRATGIPDRFSGSGSGTDFTLTISRLEPEDFAVYYCQQYNNWPPTFGQGTKLEIK
notes: human IgG1, human kappa

binding result [3]: binds
B5: EII33-IgG4 (antibody, V domains shown)
VH: QMQLVQSGAEVKKPGASVKVSCKVSGYTLTELSIHWVRQAPGKGLEWMGGFDGDGEETIYAQKFQGRVTMTGDTSTDTAYLELSSLRSEDTALYYCATGRYTSLAATYGFDYWGQGTLVTVSS
VL: EIVMTQSPATLSLSPGERATLSCRASQSVSSYLAWYQQKPGQAPRLLIYGASSRATGIPDRFSGSGSGTDFTLTISRLEPEDFAVYYCQQYRNWPFTFGQGTKLEIK
notes: human IgG4, human kappa

binding result [3]: binds
B6: EII52-IgG4 (antibody, V domains shown)
VH: QMQLVQSGAEVKKPGASVKVSCKVSGYTLTELSIHWVRQAPGKGLEWMGGFDGDIEETIYAQKFQGRVTMTGDTSTDTAYLELSSLRSEDTALYYCATGRYTSLATTYGFDYWGQGTLVTVSS
VL: EIVMTQSPATLSLSPGERATLSCRASQSVSSYLAWYQQKPGQAPRLLIYGASSRATGIPDRFSGSGSGTDFTLTISRLEPEDFAVYYCQQYANPPNTFGQGTKLEIK
notes: human IgG4, human kappa

binding result [2]: binds
B7: EII55-IgG1 (antibody, V domains shown)
VH: QMQLVQSGAEVKKPGASVKVSCKVSGYTLTELSIHWVRQAPGKGLEWMGGFDGDWHETIYAQKFQGRVTMTGDTSTDTAYLELSSLRSEDTALYYCATGRYTSLDATYGFDYWGQGTLVTVSS
VL: EIVMTQSPATLSLSPGERATLSCRASQSVSSYLAWYQQKPGQAPRLLIYGASSRATGIPDRFSGSGSGTDFTLTISRLEPEDFAVYYCQQYGNRPDTFGQGTKLEIK
notes: human IgG1, human kappa

binding result [2]: binds
B8: E105-IgG1 (antibody, V domains shown)
VH: QMQLVQSGAEVKKPGASVKVSCKVSGYTLTELSIHWVRQAPGKGLEWMGGFDPEDGETIYAQKFQGRVTMTGDTSTDTAYLELSSLRSEDTALYYCATGRYTSLMFTYGFDYWGQGTLVTVSS
VL: EIVMTQSPATLSLSPGERATLSCRASQSVSSYLAWYQQKPGQAPRLLIYGASSRATGIPDRFSGSGSGTDFTLTISRLEPEDFAVYYCQQYNNWPPTFGQGTKLEIK
notes: human IgG1, human kappa

binding result [2]: binds
B9: E113-IgG1 (antibody, V domains shown)
VH: QMQLVQSGAEVKKPGASVKVSCKVSGYTLTELSIHWVRQAPGKGLEWMGGFDPEDGETIYAQKSQGRVTMTGDTSTDTAYLELSSLRSEDTALYYCATGRYTELFASYGFDYWGQGTLVTVSS
VL: EIVMTQSPATLSLSPGERATLSCRASQSVSSYLAWYQQKPGQAPRLLIYGASSRATGIPDRFSGSGSGTDFTLTISRLEPEDFAVYYCQQYNNWPYTFGQGTKLEIK
notes: human IgG1, human kappa

IC50, human granulocyte shape change [4]: 0.00207 µg/mL
B10: E108-IgG4 (antibody, V domains shown)
VH: QMQLVQSGAEVKKPGASVKVSCKVSGHTLTELSIHWVRQAPGKGLEWMGGFDPEDGETIYAQKFQGRVTMTGDTSTDTAYLELSSLRSEDTALYYCATGRYTELYQNYGFDYWGQGTLVTVSS
VL: EIVMTQSPATLSLSPGERATLSCRASQSVSSYLAWYQQKPGQAPRLLIYGASSRATGIPDRFSGSGSGTDFTLTISRLEPEDFAVYYCQQYNNWPPTFGQGTKLEIK
IC50, human granulocyte survival [5]: 0.00552 µg/mL

binding result [3]: binds
B11: E94-IgG4 (antibody, V domains shown)
VH: QMQLVQSGAEVKKPGASVKVSCKVSGHTLTELSMHWVRQAPGKGLEWMGGFDPEDGETIYAQKFQGRVTMTGDTSTDTAYLELSSLRSEDTALYYCATGRYCETDICYGFDYWGQGTLVTVSS
VL: EIVMTQSPATLSLSPGERATLSCRASQSVSSYLAWYQQKPGQAPRLLIYGASSRATGIPDRFSGSGSGTDFTLTISRLEPEDFAVYYCQQYNNWPPTFGQGTKLEIK
notes: human IgG4, human kappa

IC50, human granulocyte shape change [4]: 0.00151 µg/mL
Kd [6]: 6.75 pM
koff [6]: 2.42e-05 s⁻¹
kon [6]: 3.58e+06 M⁻¹ s⁻¹
IC50, TNFα secretion by PBMC (Human Macrophage/Microglia Panel) [7]: 0.0666 µg/mL
IC50, CD11b expression on human peripheral blood cells [8]: 0.144 µg/mL
IC50, TNFα secretion by PBMC (ELISA) [9]: 0.0935 µg/mL
IC50, IL-1β secretion by PBMC [10]: 0.0133 µg/mL
B12: E87b-IgG4 (antibody, V domains shown)
VH: QMQLVQSGAEVKKPGASVKVSCKVSGYTLTELSIHWVRQAPGKGLEWMGGFDPEDGETIYAQKSQGRVTMTGDTSTDTAYLELSSLRSEDTALYYCATGRYVSLFFNYGFDYWGQGTLVTVSS
VL: EIVMTQSPATLSLSPGERATLSCRASQSVSSYLAWYQQKPGQAPRLLIYGASSRATGIPDRFSGSGSGTDFTLTISRLEPEDFAVYYCQQYDNWPYTFGQGTKLEIK
notes: human IgG4, human kappa
IC50, human granulocyte survival [5]: 0.00253 µg/mL

binding result [3]: binds
B13: E200a-IgG4 (antibody, V domains shown)
VH: QMQLVQSGAEVKKPGASVKVSCKVSGYTLTELPMHWVRQAPGKGLEWMGGFDPEDGETIYAQKFQGRVTMTGDTSTDTAYLELSSLRSEDTALYYCATGRYTIITTNYGFDYWGQGTLVTVSS
VL: EIVMTQSPATLSLSPGERATLSCRASQSVSSYLAWYQQKPGQAPRLLIYGASSRATGIPDRFSGSGSGTDFTLTISRLEPEDFAVYYCQQYDNWPPTFGQGTKLEIK
notes: human IgG4, human kappa

binding result [3]: binds
B14: T119-IgG4 (antibody, V domains shown)
VH: QMQLVQSGAEVKKPGASVKVSCKVSGHTLTELSIHWVRQAPGKGLEWMGGFDPEDGETNYAQKSQGRVTMTGDTSTDTAYLELSSLRSEDTALYYCATGRYCSTDTCYGFDYWGQGTLVTVSS
VL: EIVMTQSPATLSLSPGERATLSCRASQSVSSYLAWYQQKPGQAPRLLIYGASSRATGIPDRFSGSGSGTDFTLTISRLEPEDFAVYYCQQYNNWPPTFGQGTKLEIK
notes: human IgG4, human kappa; parent antibody

binding result [3]: binds
B15: E113-IgG4 (antibody, V domains shown)
VH: QMQLVQSGAEVKKPGASVKVSCKVSGYTLTELSIHWVRQAPGKGLEWMGGFDPEDGETIYAQKSQGRVTMTGDTSTDTAYLELSSLRSEDTALYYCATGRYTELFASYGFDYWGQGTLVTVSS
VL: EIVMTQSPATLSLSPGERATLSCRASQSVSSYLAWYQQKPGQAPRLLIYGASSRATGIPDRFSGSGSGTDFTLTISRLEPEDFAVYYCQQYNNWPYTFGQGTKLEIK
notes: human IgG4, human kappa
